Data on 18 molecules can be found in patent publication US10206975 (dated 2019).

In experiment [1] the target is human complement C5 (human). Nature of the experiment: competition, ECL.
The target of experiment [2] is human complement C5 (human). Description: SPR, with human albumin. In general terms: In SPR one partner is held on a chip, and binding of the other changes the refractive index at the surface.
In experiment [3] the target is T1, human serum albumin (human, UniProt P02768). Description: SPR.
The target in experiment [4] is human complement C5 (human). Nature of the experiment: SPR, without albumin.
The target of experiment [5] is human complement C5 (human). Nature of the experiment: SPR.
Experiment [6] has as its target human complement C5 (human). Description: other, ECL saturation binding.
For a further experiment, the target named is T2, human complement C4 (human).
T2 chain 1: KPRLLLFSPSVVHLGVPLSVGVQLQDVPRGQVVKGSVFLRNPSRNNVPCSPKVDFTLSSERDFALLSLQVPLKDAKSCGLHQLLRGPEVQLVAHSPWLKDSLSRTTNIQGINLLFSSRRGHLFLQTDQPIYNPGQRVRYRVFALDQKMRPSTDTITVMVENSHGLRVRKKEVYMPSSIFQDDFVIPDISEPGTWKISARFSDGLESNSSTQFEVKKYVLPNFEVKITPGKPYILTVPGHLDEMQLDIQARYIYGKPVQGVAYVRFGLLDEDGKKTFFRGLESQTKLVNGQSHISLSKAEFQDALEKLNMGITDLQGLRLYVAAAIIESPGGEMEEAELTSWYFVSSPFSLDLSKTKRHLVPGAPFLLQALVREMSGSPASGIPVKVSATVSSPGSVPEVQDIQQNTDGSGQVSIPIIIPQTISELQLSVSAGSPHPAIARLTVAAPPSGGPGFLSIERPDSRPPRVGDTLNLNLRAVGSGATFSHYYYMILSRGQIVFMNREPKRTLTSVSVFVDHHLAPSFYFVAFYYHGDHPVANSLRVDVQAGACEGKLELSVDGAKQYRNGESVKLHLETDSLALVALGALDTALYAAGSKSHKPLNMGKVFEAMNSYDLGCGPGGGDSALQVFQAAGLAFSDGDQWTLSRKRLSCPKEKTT
T2 chain 2: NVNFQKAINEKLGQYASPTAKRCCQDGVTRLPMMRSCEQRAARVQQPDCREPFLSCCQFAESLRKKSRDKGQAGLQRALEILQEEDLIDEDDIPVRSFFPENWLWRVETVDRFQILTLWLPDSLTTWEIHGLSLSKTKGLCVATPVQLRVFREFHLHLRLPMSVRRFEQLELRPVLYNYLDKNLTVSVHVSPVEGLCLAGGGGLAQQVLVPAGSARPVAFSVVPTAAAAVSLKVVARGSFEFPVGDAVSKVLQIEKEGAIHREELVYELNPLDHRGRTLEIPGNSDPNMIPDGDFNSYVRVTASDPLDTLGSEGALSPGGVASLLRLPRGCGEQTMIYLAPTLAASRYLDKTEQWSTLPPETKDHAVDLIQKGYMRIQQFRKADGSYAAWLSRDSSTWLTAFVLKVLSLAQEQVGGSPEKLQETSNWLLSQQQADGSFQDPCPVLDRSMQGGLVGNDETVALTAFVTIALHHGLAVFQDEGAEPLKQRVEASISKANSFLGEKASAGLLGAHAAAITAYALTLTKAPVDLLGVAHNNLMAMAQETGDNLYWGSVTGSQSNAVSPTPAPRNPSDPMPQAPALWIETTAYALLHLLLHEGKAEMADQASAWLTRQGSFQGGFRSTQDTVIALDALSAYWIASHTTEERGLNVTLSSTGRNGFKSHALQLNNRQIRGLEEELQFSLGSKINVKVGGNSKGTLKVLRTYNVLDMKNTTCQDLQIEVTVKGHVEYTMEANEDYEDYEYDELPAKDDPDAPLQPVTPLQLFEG
T2 chain 3: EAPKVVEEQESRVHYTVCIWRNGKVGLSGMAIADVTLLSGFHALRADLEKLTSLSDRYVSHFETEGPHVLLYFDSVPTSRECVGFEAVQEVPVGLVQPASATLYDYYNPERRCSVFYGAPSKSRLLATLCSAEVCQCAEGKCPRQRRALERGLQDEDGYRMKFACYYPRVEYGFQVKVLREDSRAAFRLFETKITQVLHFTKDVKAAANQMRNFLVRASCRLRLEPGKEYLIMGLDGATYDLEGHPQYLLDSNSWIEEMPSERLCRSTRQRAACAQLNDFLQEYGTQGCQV
Nature of the experiment: SPR, 40 and 400 nM.

Another experiment addresses human complement C3 (human, UniProt P01024). Description: SPR, 40 and 400 nM.
The target in experiment [7] is T1, human serum albumin. Description: SPR, 25C.
Another experiment deals with T3, rat serum albumin (rat, UniProt P02770).
T3 chain: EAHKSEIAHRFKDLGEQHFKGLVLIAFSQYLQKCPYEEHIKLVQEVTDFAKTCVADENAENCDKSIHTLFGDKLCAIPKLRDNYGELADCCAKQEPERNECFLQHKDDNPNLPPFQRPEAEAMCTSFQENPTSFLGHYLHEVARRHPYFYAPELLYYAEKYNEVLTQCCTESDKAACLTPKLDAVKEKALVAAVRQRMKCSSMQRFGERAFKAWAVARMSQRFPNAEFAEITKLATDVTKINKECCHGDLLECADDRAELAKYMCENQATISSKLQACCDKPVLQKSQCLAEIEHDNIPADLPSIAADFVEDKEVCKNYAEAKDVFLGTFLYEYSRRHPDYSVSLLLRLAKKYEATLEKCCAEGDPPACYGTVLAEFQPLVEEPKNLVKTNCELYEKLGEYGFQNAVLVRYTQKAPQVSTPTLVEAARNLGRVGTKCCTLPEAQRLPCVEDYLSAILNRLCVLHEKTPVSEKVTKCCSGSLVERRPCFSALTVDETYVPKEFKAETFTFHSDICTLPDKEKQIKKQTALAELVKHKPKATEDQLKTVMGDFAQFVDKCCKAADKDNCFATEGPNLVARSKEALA
Nature of the experiment: SPR.

A further experiment addresses bovine serum albumin (bovine, UniProt P02769). Description: SPR.
A further experiment addresses mouse serum albumin (mouse, UniProt P07724). Description: SPR.

Chain of bovine serum albumin (P02769 25-607): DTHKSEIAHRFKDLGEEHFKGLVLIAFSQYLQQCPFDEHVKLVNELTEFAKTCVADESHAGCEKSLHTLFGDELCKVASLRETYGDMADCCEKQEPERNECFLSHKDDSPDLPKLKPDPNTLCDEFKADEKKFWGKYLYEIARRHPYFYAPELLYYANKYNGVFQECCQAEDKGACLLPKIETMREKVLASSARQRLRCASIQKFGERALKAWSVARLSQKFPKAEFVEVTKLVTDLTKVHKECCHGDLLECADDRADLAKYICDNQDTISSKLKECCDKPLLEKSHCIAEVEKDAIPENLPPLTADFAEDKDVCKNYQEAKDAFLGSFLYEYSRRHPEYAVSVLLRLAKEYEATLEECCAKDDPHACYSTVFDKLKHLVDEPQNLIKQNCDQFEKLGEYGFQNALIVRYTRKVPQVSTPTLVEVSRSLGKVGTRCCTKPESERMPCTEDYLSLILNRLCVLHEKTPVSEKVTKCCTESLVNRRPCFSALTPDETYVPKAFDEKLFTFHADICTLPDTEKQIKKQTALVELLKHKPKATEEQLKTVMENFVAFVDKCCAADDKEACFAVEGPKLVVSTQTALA
Chain of mouse serum albumin (P07724 25-608): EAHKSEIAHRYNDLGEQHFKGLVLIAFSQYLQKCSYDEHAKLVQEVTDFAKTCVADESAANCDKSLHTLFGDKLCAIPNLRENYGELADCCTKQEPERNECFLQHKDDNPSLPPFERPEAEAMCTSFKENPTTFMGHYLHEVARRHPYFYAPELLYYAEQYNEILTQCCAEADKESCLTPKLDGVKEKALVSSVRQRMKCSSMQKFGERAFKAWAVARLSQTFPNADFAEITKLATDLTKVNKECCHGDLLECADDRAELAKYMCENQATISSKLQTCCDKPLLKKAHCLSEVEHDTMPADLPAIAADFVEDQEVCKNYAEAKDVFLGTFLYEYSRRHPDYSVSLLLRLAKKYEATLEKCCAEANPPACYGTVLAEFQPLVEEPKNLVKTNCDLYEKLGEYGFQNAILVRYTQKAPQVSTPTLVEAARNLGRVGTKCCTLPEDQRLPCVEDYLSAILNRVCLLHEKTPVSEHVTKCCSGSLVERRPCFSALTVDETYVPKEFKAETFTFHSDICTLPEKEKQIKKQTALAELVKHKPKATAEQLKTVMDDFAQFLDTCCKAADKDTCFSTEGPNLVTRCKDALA

B1: OmCI (protein)
chain: MDSESDCTGSEPVDAFQAFSEGKEAYVLVRSTDPKARDCLKGEPAGEKQDNTLPVMMTFKNGTDWASTDWTFTLDGAKVTATLGNLTQNREVVYDSQSHHCHVDKVEKEVPDYEMWMLDAGGLEVEVECCRQKLEELASGRNQMYPHLKDCGGGGSENLYFQGSHHHHHH
The IC50 is the concentration that inhibits the measured activity by half. With B1, the IC50 in the experiment with human complement C5 [1] is 1.5 nM.

B2: Z06175a-GS-ABD094-GS(G4S)2-Z06175a (designed binder)
chain 1: not shown
chain 2: LAEAKEAANAELDSYGVSDFYKRLIDKAKTVEGVEALKDAILAALP
chain 3: not shown
A word on the Kd: it is the equilibrium constant for the complex coming apart. B2: the equilibrium dissociation constant (Kd) with human complement C5 [2] is 0.586 nM; in the experiment with human serum albumin [3] it was above 1 nM; with human complement C5 [4] it was 0.662 nM.

B3: Z(754)-GS-ABD094 (designed binder)
chain 1: not shown
chain 2: LAEAKEAANAELDSYGVSDFYKRLIDKAKTVEGVEALKDAILAALP
In the experiment with human complement C5 [5], B3 yielded a Kd of 2.28 nM. That is a single-digit nanomolar value.

B4: Z(749)-GS-ABD094 (designed binder)
chain 1: not shown
chain 2: LAEAKEAANAELDSYGVSDFYKRLIDKAKTVEGVEALKDAILAALP
For the molecule B4, binding in the experiment with human complement C5 [5] was put at a Kd of 1.83 nM.

B5: Z(750)-GS-ABD094 (designed binder)
chain 1: not shown
chain 2: LAEAKEAANAELDSYGVSDFYKRLIDKAKTVEGVEALKDAILAALP
Regarding B5, the Kd with human complement C5 [5] stood at 1.75 nM.

B6: SULFO-TAG Z(748)-GS-ABD094 (designed binder)
chain 1: not shown
chain 2: LAEAKEAANAELDSYGVSDFYKRLIDKAKTVEGVEALKDAILAALP
Take B6: the Kd with human complement C5 [6] is 0.9 nM. In other words, the sub-nanomolar range.

B7: Z(757)-GS-ABD094 (designed binder)
chain 1: not shown
chain 2: LAEAKEAANAELDSYGVSDFYKRLIDKAKTVEGVEALKDAILAALP
B7 yielded a Kd with human complement C5 [5] of 2.34 nM.

B8: Z05477a-GS-ABD094 (designed binder)
chain 1: not shown
chain 2: LAEAKEAANAELDSYGVSDFYKRLIDKAKTVEGVEALKDAILAALP
In the experiment with human complement C5 [1], B8 displayed an IC50 of around 30 nM.

B9: Z(748)-GS-ABD094 (Z06009a) (designed binder)
chain 1: not shown
chain 2: LAEAKEAANAELDSYGVSDFYKRLIDKAKTVEGVEALKDAILAALP
Turning to B9, the binding result in the experiment with human complement C4 and with human complement C3 was “no binding” in each case. This molecule also had a Kd in the experiment with human complement C5 [5] of 1.31 nM.

B10: Z(752)-GS-ABD094 (designed binder)
chain 1: not shown
chain 2: LAEAKEAANAELDSYGVSDFYKRLIDKAKTVEGVEALKDAILAALP
B10 registered a Kd with human complement C5 [5] of 2.58 nM.

B11: Z(755)-GS-ABD094 (designed binder)
chain 1: not shown
chain 2: LAEAKEAANAELDSYGVSDFYKRLIDKAKTVEGVEALKDAILAALP
The molecule B11 yielded a Kd with human complement C5 [5] of 3.05 nM.

B12: Z(756)-GS-ABD094 (designed binder)
chain 1: not shown
chain 2: LAEAKEAANAELDSYGVSDFYKRLIDKAKTVEGVEALKDAILAALP
As for B12, the dissociation constant Kd with human complement C5 [5] was determined as 2.01 nM.

B13: Z06175a-Z06175a-GS-ABD094 (designed binder)
chain 1: not shown
chain 2: not shown
chain 3: LAEAKEAANAELDSYGVSDFYKRLIDKAKTVEGVEALKDAILAALP
On to B13, for which the dissociation constant (Kd) amounted to 0.776 nM with human complement C5 [2] and 0.63 nM with human complement C5 [4].

B14: Z06175a-GS-ABD094 (designed binder)
chain 1: not shown
chain 2: LAEAKEAANAELDSYGVSDFYKRLIDKAKTVEGVEALKDAILAALP
B14: the dissociation constant (Kd) in the experiment with human complement C5 [2] is 1.43 nM; with human serum albumin [7] it was below 1 nM; with rat serum albumin, below 0.1 nM; with mouse serum albumin it was around 4 nM; in the experiment with human complement C5 [5], 1.18 nM; in the experiment with human complement C5 [4], 1.43 nM. For the same molecule, the binding result with bovine serum albumin is listed as “no binding”.

B15: ABD094-Z06175a (N-terminal ABD) (designed binder)
chain 1: LAEAKEAANAELDSYGVSDFYKRLIDKAKTVEGVEALKDAILAALP
chain 2: not shown
Regarding B15, the IC50 in the experiment with human complement C5 [1] worked out at 17 nM.

B16: Z(751)-GS-ABD094 (designed binder)
chain 1: not shown
chain 2: LAEAKEAANAELDSYGVSDFYKRLIDKAKTVEGVEALKDAILAALP
Take B16: in the experiment with human complement C5 [5], the affinity, expressed as Kd, was 1.87 nM.

B17: Z06175a-Z06175a-GS(G4S)2-ABD094 (designed binder)
chain 1: not shown
chain 2: not shown
chain 3: LAEAKEAANAELDSYGVSDFYKRLIDKAKTVEGVEALKDAILAALP
Regarding B17, the Kd worked out at 1.13 nM with human complement C5 [2] and 1.38 nM with human complement C5 [4].

B18: Z06175a-GS(G4S)2-ABD094 (designed binder)
chain 1: not shown
chain 2: LAEAKEAANAELDSYGVSDFYKRLIDKAKTVEGVEALKDAILAALP
Consider B18, for which, in the experiment with human complement C5 [4], the affinity, expressed as Kd, was 3.75 nM. This counts as single-digit nanomolar.
